Experiment in all cases: cross-linking
The target of series [1] is Sir2 (untagged final), full-length (S. cerevisiae, UniProt P06700 1-562).
Series [2] addresses Sir3 winged helix deletion (Sir3 1-850) (S. cerevisiae, UniProt P06701 1-850).
The series “cross-linking” deals with the molecule itself.

Sir2 (untagged final), full-length, sequence (P06700 whole entry): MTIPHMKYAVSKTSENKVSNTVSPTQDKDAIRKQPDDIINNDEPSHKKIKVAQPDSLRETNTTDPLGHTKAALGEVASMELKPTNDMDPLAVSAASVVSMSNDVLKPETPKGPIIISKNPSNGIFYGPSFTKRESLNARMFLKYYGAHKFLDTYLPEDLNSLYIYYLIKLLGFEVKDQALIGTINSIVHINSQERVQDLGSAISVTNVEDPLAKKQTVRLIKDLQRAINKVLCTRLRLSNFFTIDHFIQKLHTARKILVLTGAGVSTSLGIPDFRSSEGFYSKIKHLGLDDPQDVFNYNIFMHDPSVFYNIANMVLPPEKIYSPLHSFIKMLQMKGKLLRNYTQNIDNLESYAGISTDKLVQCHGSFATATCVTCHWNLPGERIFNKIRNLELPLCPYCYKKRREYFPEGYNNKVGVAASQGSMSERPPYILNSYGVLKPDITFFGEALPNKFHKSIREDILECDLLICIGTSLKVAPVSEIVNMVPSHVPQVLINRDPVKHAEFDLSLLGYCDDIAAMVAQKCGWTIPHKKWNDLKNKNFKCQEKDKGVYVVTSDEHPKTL
Sir3 winged helix deletion (Sir3 1-850), sequence (P06701 1-850, stated change not applied): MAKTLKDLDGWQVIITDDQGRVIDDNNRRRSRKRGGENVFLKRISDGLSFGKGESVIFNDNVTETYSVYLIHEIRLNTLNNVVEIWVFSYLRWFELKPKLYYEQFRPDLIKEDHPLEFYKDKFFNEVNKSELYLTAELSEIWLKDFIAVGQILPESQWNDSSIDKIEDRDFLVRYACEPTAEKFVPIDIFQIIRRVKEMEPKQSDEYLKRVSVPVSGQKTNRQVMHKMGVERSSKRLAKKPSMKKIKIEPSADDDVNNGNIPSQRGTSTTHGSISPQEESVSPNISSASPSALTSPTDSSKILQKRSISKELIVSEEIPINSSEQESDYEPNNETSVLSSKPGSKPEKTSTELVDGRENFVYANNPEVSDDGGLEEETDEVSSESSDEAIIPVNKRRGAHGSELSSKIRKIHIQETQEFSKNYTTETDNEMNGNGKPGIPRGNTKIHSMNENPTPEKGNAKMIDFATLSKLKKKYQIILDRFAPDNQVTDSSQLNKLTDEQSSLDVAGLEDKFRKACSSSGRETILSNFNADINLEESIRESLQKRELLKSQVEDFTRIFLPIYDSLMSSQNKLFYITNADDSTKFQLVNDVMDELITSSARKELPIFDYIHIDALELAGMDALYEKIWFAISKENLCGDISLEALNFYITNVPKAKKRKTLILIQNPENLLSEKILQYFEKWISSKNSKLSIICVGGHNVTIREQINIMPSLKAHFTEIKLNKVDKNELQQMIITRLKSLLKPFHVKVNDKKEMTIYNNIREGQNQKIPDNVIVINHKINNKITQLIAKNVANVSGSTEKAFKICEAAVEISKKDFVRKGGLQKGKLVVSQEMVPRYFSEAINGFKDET

B1: MBP-Sir4(1150-1358) (domain or fragment, S. cerevisiae, UniProt P11978 1150-1358, looked up)
chain: KTLPEKKQFDSIFNSNKAKIIPGNGKHASENISLSFSRPASYGYFSVGKRVPIVEDRRVKQLDDITDSNTTEILTSVDVLGTHSQTGTQQSNMYTSTQKTELEIDNKDSVTECSKDMKEDGLSFVDIVLSKAASALDEKEKQLAVANEIIRSLSDEVMRNEIRITSLQGDLTFTKKCLENARSQISEKDAKINKLMEKDFQVNKEIKPY
With B1, the binding result in series [1] is “binds”.

B2: MBP-Sir4(744-1358) (domain or fragment, S. cerevisiae, UniProt P11978 744-1358, looked up)
chain: PGKMELVYVSDSDDSSSDNDSLTDLESLSSGESNEIKVTNDLDTSAEKDQIQAGKWFDPVLDWRKSDRELTKNILWRIADKTTYDKETITDLIEQGIPKHSYLSGNPLTSVTNDICSVENYETSSAFFYQQVHKKDRLQYLPLYAVSTFENTNNTEKNDVTNKNINIGKHSQEQNSSSAKPSQIPTVSSPLGFEETKLSTTPTKSNRRVSHSDTNSSKPKNTKENLSKSSWRQEWLANLKLISVSLVDEFPSELSDSDRQIINEKMQLLKDIFANNLKSAISNNFRESDIIILKGEIEDYPMSSEIKIYYNELQNKPDAKKARFWSFMKTQRFVSNMGFDIQKSCEPVSISTSVKPHVVEPEHMADAKIMPKDILQITKKPLMVKNVKPSSPPDVKSLVQLSTMETKTLPEKKQFDSIFNSNKAKIIPGNGKHASENISLSFSRPASYGYFSVGKRVPIVEDRRVKQLDDITDSNTTEILTSVDVLGTHSQTGTQQSNMYTSTQKTELEIDNKDSVTECSKDMKEDGLSFVDIVLSKAASALDEKEKQLAVANEIIRSLSDEVMRNEIRITSLQGDLTFTKKCLENARSQISEKDAKINKLMEKDFQVNKEIKPY
Consider B2, for which the binding result (in series [2]; in “cross-linking”) was “binds” throughout.

(Values after PMC11703230 (bioRxiv, 2025).)
